For assay [1], the target named is Mtb RNAP holoenzyme with σ^B in which residues 252-323 (subregion 4.2) are deleted (M. tuberculosis) (UniProt P9WGZ1). Nature of the assay: SEC. On the technique in general: SEC sorts molecules by how far they enter the pores of the column.
Assay [2] shares this target. Nature of the assay: negative stain EM.

This passage reports stoichiometry N results from PMC9886945.

What is called stoichiometry N is a count of units in the complex or per binding partner.

In the case of “Mtb RNAP holoenzyme with σ^B in which residues 252-323 (subregion 4.2) are deleted, P9WGZ1;P9WGY9;P9WGY7;P9WGY5;P9WGI5”, the stoichiometry N in assay [1] and in assay [2] was 8 throughout.
